In this test the target is M6P/IGF-IIR (Homo sapiens, UniProt P11717). Description: SPR. (In SPR one partner is held on a chip, and binding of the other changes the refractive index at the surface.)
M6P/IGF-IIR, sequence (P11717 41-2491): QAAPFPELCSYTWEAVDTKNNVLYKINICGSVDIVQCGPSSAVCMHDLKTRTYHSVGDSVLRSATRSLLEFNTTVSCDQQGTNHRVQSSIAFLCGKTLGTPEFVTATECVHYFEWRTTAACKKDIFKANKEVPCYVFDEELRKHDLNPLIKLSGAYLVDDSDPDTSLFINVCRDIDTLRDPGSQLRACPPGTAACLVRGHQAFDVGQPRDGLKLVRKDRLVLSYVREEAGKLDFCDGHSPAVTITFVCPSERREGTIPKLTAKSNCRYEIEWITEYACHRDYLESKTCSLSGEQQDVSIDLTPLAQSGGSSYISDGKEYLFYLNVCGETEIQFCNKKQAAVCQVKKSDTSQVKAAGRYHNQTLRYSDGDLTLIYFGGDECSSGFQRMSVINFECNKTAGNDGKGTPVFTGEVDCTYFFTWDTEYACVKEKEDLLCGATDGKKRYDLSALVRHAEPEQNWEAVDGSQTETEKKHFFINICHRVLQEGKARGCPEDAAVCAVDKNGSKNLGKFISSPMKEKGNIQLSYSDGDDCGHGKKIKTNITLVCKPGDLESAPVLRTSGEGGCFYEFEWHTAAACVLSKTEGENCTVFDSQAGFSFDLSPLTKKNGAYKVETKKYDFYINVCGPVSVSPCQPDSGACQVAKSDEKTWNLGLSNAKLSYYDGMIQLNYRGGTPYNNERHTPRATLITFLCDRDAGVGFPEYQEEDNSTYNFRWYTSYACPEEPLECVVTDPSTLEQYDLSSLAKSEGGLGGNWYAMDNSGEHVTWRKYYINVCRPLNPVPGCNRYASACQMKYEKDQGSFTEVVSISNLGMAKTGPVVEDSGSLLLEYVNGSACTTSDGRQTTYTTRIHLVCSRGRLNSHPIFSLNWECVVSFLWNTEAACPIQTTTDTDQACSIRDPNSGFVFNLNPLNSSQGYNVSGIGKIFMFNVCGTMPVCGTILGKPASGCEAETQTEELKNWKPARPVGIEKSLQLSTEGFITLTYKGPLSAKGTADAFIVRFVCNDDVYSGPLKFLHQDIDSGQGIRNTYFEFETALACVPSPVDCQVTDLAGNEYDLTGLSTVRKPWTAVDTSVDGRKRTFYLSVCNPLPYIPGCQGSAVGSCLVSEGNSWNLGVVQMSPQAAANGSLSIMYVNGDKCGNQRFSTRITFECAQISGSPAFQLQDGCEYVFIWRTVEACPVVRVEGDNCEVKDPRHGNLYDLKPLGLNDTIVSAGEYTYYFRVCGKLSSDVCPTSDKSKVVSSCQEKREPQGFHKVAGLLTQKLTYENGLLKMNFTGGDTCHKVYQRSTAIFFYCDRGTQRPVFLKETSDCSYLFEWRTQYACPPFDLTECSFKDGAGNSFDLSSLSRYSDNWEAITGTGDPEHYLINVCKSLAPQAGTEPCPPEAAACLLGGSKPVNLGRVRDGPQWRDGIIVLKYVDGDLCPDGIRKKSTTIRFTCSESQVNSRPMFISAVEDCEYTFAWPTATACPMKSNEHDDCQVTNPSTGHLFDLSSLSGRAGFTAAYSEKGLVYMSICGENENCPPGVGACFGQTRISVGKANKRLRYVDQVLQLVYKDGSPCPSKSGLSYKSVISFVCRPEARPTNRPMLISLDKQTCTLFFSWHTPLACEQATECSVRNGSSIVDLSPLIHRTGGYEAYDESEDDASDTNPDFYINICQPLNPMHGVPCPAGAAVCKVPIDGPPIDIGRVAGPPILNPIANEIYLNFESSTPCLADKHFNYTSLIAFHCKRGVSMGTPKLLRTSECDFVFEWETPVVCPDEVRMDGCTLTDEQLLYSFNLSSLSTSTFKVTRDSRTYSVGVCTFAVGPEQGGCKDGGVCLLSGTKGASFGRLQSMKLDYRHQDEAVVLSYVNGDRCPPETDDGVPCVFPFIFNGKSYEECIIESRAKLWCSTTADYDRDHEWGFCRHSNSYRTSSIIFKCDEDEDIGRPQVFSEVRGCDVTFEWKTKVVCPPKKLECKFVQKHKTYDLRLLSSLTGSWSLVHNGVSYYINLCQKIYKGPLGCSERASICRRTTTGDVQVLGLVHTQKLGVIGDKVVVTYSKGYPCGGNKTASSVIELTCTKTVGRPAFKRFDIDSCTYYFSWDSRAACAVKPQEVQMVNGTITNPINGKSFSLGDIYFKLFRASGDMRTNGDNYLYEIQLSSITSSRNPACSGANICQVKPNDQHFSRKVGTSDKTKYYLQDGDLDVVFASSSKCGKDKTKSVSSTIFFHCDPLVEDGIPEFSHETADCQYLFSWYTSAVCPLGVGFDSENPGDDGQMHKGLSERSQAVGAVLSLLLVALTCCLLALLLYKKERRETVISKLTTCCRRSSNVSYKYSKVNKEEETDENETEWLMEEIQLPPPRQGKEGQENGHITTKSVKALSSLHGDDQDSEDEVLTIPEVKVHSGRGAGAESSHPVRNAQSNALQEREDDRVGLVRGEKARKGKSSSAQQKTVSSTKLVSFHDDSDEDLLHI

B1: DPP-4 (protein)
chain: SRKTYTLTDYLKNTYRLKLYSLRWISDHEYLYKQENNILVFNAEYGNSSVFLENSTFDEFGHSINDYSISPDGQFILLEYNYVKQWRHSYTASYDIYDLNKRQLITEERIPNNTQWVTWSPVGHKLAYVWNNDIYVKIEPNLPSYRITWTGKEDIIYNGITDWVYEEEVFSAYSALWWSPNGTFLAYAQFNDTEVPLIEYSFYSDESLQYPKTVRVPYPKAGAVNPTVKFFVVNTDSLSSVTNATSIQITAPASMLIGDHYLCDVTWATQERISLQWLRRIQNYSVMDICDYDESSGRWNCLVARQHIEMSTTGWVGRFRPSEPHFTLDGNSFYKIISNEEGYRHICYFQIDKKDCTFITKGTWEVIGIEALTSDYLYYISNEYKGMPGGRNLYKIQLSDYTKVTCLSCELNPERCQYYSVSFSKEAKYYQLRCSGPGLPLYTLHSSVNDKGLRVLEDNSALDKMLQNVQMPSKKLDFIILNETKFWYQMILPPHFDKSKKYPLLLDVYAGPCSQKADTVFRLNWATYLASTENIIVASFDGRGSGYQGDKIMHAINRRLGTFEVEDQIEAARQFSKMGFVDNKRIAIWGWSYGGYVTSMVLGSGSGVFKCGIAVAPVSRWEYYDSVYTERYMGLPTPEDNLDHYRNSTVMSRAENFKQVEYLLIHGTADDNVHFQQSAQISKALVDVGVDFQAMWYTDEDHGIASSTAHQHIYTHMSHFIKQCFSLP
The Kd is the equilibrium constant for the complex coming apart. Read a high Kd as a looser complex. B1: binding was characterised by a dissociation constant (Kd) of 35.9 µM.

(Values after publication PMC3765742 (2013).)
